Data from PMC2978023 (Journal of immunology (Baltimore, Md. : 1950), 2008).
Ends that are not written are not given here.

B1: peptide P2-C, Fgγ(385)KIIPFNRLTIG(395) (peptide)
peptide: KIIPFNRLTIG
modifications: also: biotin label, position not given here
B2: peptide P1, Fgγ(190)GWTVFQKRLDGSV(202) (peptide)
peptide: GWTVFQKRLDGSV
modifications: also: biotin label, position not given here

Columns and labels:
Test in all cases: ELISA
[1] = target: recombinant purified β2 integrin subunit (UniProt P05107 23-769)
[2] = target: recombinant purified integrin αMβ2 (UniProt P11215 17-1152; P05107 23-769)
[3] = target: recombinant purified αM integrin subunit (UniProt P11215 17-1152)

| Binder | Kd [1] [nM] | Kd [2] [nM] | Kd [3] [nM] |
| --- | --- | --- | --- |
| B1 | 50 | 12 | 100 |
| B2 | > 100000 | – | – |
